According to patent US20230167169A1 (ATRECA, published 2023):

Target: T1, (NANP)6 (Plasmodium falciparum, biotinylated for the BLI assay (site not stated))
T1 construct: Used in both the BLI and SPR assays
T1 peptide: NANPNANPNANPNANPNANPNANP
Test: BLI; biotinylated target on streptavidin sensor; antibody at 5 µg/mL

B1: AB-000224 (antibody, V domains shown)
VH: EVQLVESGGGLVQPGRSLRLPCTASGFSFGDHAMSWVRQAPGKGLEWVGFIRKTTYGATTHYAAAVRGRFTISRDDSKSIVYLQMNSLKTEDTAVYFCTRVQLDYGPGYQYYGMDVWGQGTTVTVSS
VL: ESVLTQPPSVSGAPGQRVTISCTGMNSNIGAGYDVYWYQQLPGRAPKLLIYGNSNRPSGVPDRFSGSRSGTSASLAITGLQAEDEADYYCQSYDTSLNGWAFGGGTKLTVLG
- kon: 275000 M⁻¹ s⁻¹
